{"source": "patent US20120208867A1", "key": {"[1]": {"target": "TLR-2 in which His-tag was added to the N-terminus (His-tag-added TLR-2)", "sequence (O60603 whole entry)": "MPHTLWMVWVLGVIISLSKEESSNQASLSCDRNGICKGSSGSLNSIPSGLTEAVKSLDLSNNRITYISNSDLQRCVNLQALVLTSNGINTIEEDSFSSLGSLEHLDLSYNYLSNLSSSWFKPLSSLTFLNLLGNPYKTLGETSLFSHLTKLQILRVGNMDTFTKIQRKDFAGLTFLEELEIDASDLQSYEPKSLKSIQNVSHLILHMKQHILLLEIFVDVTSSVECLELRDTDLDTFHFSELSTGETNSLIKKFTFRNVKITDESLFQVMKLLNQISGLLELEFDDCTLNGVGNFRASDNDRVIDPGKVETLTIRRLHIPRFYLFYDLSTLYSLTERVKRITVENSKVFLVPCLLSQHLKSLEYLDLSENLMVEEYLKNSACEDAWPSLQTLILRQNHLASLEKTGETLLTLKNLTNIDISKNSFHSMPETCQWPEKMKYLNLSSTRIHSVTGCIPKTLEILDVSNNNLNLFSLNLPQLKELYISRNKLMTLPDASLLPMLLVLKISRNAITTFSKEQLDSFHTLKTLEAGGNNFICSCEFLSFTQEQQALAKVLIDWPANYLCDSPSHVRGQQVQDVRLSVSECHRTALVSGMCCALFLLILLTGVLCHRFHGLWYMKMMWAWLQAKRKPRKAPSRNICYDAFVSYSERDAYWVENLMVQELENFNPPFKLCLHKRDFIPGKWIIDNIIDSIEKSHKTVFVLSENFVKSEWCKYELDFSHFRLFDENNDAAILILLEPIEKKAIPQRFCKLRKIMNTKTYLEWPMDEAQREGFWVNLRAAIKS", "test": "pull-down of HMGB1 (2 ug) with His-tag-added TLR-2 (2 ug) on Co2+ agarose beads, Western blot with anti-HMGB1 antibody; lane '-': no tRNA, no RNA aptamer"}, "[2]": {"target": "TLR-2 in which His-tag was added to the N-terminus (His-tag-added TLR-2)", "test": "pull-down of HMGB1 (2 ug) with His-tag-added TLR-2 (2 ug) on Co2+ agarose beads, Western blot with anti-HMGB1 antibody; tRNA added, in the presence of 2 ug of 40N RNA library (comparative example)"}, "[3]": {"target": "TLR-2 in which His-tag was added to the N-terminus (His-tag-added TLR-2)", "test": "pull-down of HMGB1 (2 ug) with His-tag-added TLR-2 (2 ug) on Co2+ agarose beads, Western blot with anti-HMGB1 antibody; tRNA added, in the presence of 1 ug of 40N RNA library (comparative example)"}, "[4]": {"target": "TLR-2 in which His-tag was added to the N-terminus (His-tag-added TLR-2)", "test": "pull-down of HMGB1 (2 ug) with His-tag-added TLR-2 (2 ug) on Co2+ agarose beads, Western blot with anti-HMGB1 antibody; tRNA added, in the presence of 4 ug of RNA aptamer R8c6_1-18 as inhibitor"}, "[5]": {"target": "TLR-2 in which His-tag was added to the N-terminus (His-tag-added TLR-2)", "test": "pull-down of HMGB1 (2 ug) with His-tag-added TLR-2 (2 ug) on Co2+ agarose beads, Western blot with anti-HMGB1 antibody; tRNA added, in the presence of 1 ug of RNA aptamer R8c6_1-18 as inhibitor"}, "[6]": {"target": "TLR-2 in which His-tag was added to the N-terminus (His-tag-added TLR-2)", "test": "pull-down of HMGB1 (2 ug) with His-tag-added TLR-2 (2 ug) on Co2+ agarose beads, Western blot with anti-HMGB1 antibody; lane '+': tRNA added, no RNA aptamer (reference lane, set to 100)"}, "[7]": {"target": "TLR-2 in which His-tag was added to the N-terminus (His-tag-added TLR-2)", "test": "pull-down of HMGB1 (2 ug) with His-tag-added TLR-2 (2 ug) on Co2+ agarose beads, Western blot with anti-HMGB1 antibody; tRNA added, in the presence of 4 ug of 40N RNA library (comparative example)"}, "[8]": {"target": "TLR-2 in which His-tag was added to the N-terminus (His-tag-added TLR-2)", "test": "pull-down of HMGB1 (2 ug) with His-tag-added TLR-2 (2 ug) on Co2+ agarose beads, Western blot with anti-HMGB1 antibody; tRNA added, in the presence of 2 ug of RNA aptamer R8c6_1-18 as inhibitor"}}, "data": [{"substance": "HMGB1 protein (High-mobility group box 1 protein) (ligand)", "values": [{"measurement": "HMGB1/TLR-2 (HMGB1 band corrected for TLR-2, relative to lane '+' = 100)", "setting": "[1]", "value": 60}, {"measurement": "HMGB1/TLR-2 (HMGB1 band corrected for TLR-2, relative to lane '+' = 100)", "setting": "[2]", "value": 84}, {"measurement": "HMGB1/TLR-2 (HMGB1 band corrected for TLR-2, relative to lane '+' = 100)", "setting": "[3]", "value": 108}, {"measurement": "HMGB1/TLR-2 (HMGB1 band corrected for TLR-2, relative to lane '+' = 100)", "setting": "[4]", "value": 29}, {"measurement": "HMGB1/TLR-2 (HMGB1 band corrected for TLR-2, relative to lane '+' = 100)", "setting": "[5]", "value": 113}, {"measurement": "HMGB1/TLR-2 (HMGB1 band corrected for TLR-2, relative to lane '+' = 100)", "setting": "[6]", "value": 100}, {"measurement": "HMGB1/TLR-2 (HMGB1 band corrected for TLR-2, relative to lane '+' = 100)", "setting": "[7]", "value": 85}, {"measurement": "HMGB1/TLR-2 (HMGB1 band corrected for TLR-2, relative to lane '+' = 100)", "setting": "[8]", "value": 61}]}]}
